These results are taken from US20110217291A1 (ZymoGenetics, published 2011).

Experiment in all cases: cell-based or functional assay
Experiment [1] concerns the target rabbit polyclonal anti-OVA antibodies.
Experiment [2] shares this target. This is another data set of the same source.
Experiment [3] has the same target. This is another data set of the same source.
The target is the same in experiment [4]. This is another data set of the same source.

B1: FcγRIIA/RIA-CH6 (soluble hybrid receptor: first Ig domain of FcγRIIA followed by second and third Ig domains of FcγRIA, C-terminal six His tag) (receptor)
chain: AAPPKAVLKLEPPWINVLQEDSVTLTCQGARSPESDSIQWFHNGNLIPTHTQPSYRFKANNNDSGEYTCQTGQTSLSDPVHLTVLSEWLLLQVSSRVFTEGEPLALRCHAWKDKLVYNVLYYRNGKAFKFFHWNSNLTILKTNISHNGTYHCSGMGKHRYTSAGISVTVKELFPAPVLNASVTSPLLEGNLVTLSCETKLLLQRPGLQLYFSFYMGSKTLRGRNTSSEYQILTARREDSGLYWCEAATEDGNVLKRSPELELQVLGGSGGHHHHHH
On to B1, for which the “IC50 (read off the curve); IL-6 secretion by MC/9 mast cells stimulated with anti-OVA/OVA immune complexes” value in experiment [1] is ~2 pmol. Further, the “IC50 (read off the curve); IL-13 secretion by MC/9 mast cells stimulated with anti-OVA/OVA immune complexes” value in experiment [2] was ~2 pmol. For the same molecule, the “IC50 (read off the curve); TNF-α secretion by MC/9 mast cells stimulated with anti-OVA/OVA immune complexes” value in experiment [3] was ~2 pmol. Besides, the “IC50 (read off the curve); MCP-1 secretion by MC/9 mast cells stimulated with anti-OVA/OVA immune complexes” value in experiment [4] was ~2 pmol.

B2: untagged recombinant soluble human FcγRIA (receptor)
chain: QVDTTKAVITLQPPWVSVFQEETVTLHCEVLHLPGSSSTQWFLNGTATQTSTPSYRITSASVNDSGEYRCQRGLSGRSDPIQLEIHRGWLLLQVSSRVFTEGEPLALRCHAWKDKLVYNVLYYRNGKAFKFFHWNSNLTILKTNISHNGTYHCSGMGKHRYTSAGISVTVKELFPAPVLNASVTSPLLEGNLVTLSCETKLLLQRPGLQLYFSFYMGSKTLRGRNTSSEYQILTARREDSGLYWCEAATEDGNVLKRSPELELQVLG
modifications: N-terminal pyro-glutamic acid, converted from the glutamine at position 16
For the molecule B2, the “IC50 (read off the curve); IL-6 secretion by MC/9 mast cells stimulated with anti-OVA/OVA immune complexes” value in experiment [1] is ~1 pmol. Besides, the “IC50 (read off the curve); IL-13 secretion by MC/9 mast cells stimulated with anti-OVA/OVA immune complexes” value in experiment [2] is ~1 pmol. Moreover, in experiment [3], the “IC50 (read off the curve); TNF-α secretion by MC/9 mast cells stimulated with anti-OVA/OVA immune complexes” value is ~1 pmol. Also, the “IC50 (read off the curve); MCP-1 secretion by MC/9 mast cells stimulated with anti-OVA/OVA immune complexes” value in experiment [4] is ~2 pmol.

B3: FcγRIIIA/RIA-CH6 (soluble hybrid receptor: first Ig domain of FcγRIIIA followed by second and third Ig domains of FcγRIA, C-terminal six His tag) (receptor)
chain: EDLPKAVVFLEPQWYRVLEKDSVTLKCQGAYSPEDNSTQWFHNESLISSQASSYFIDAATVDDSGEYRCQTNLSTLSDPVQLEVHIGWLLLQVSSRVFTEGEPLALRCHAWKDKLVYNVLYYRNGKAFKFFHWNSNLTILKTNISHNGTYHCSGMGKHRYTSAGISVTVKELFPAPVLNASVTSPLLEGNLVTLSCETKLLLQRPGLQLYFSFYMGSKTLRGRNTSSEYQILTARREDSGLYWCEAATEDGNVLKRSPELELQVLGGSGGHHHHHH
Turning to B3, the “IC50 (read off the curve); IL-6 secretion by MC/9 mast cells stimulated with anti-OVA/OVA immune complexes” value in experiment [1] was ~2 pmol. The “IC50 (read off the curve); IL-13 secretion by MC/9 mast cells stimulated with anti-OVA/OVA immune complexes” value in experiment [2] was ~1 pmol. For the same molecule, the “IC50 (read off the curve); TNF-α secretion by MC/9 mast cells stimulated with anti-OVA/OVA immune complexes” value in experiment [3] was ~1 pmol. In addition, in experiment [4], the “IC50 (read off the curve); MCP-1 secretion by MC/9 mast cells stimulated with anti-OVA/OVA immune complexes” value is ~2 pmol.
